Biological target: T1, human epidermal growth factor receptor (human (endogenous in melanoma cells …, UniProt P00533 25-1210))
T1 construct: epidermal growth factor receptor, human, as present on human melanoma cells (CRL-1872); The cells were not transfected; also called hEGFR; EGFR; source: endogenous, human melanoma cells (CRL-1872, ATCC), formalin-fixed in a 96-well plate
Experiment: ligand binding assay on fixed cells (biotinylated ligand, NeutrAvidin-HRP, ABTS, absorbance at 405 nm); formalin-fixed human melanoma cells in a 96-well plate; biotinylated peptide at 10, 50 and 500 nM in MEM with 0.1% BSA and 200 mM HEPES, 37 °C, 1 h; washes with cold PBS and 0.3 M NaCl; triplicates
Conditions: one partner purified

B1: Recombinant human EGF (ligand)
chain: MNSDSECPLSHDGYCLHDGVCMYIEALDKYACNCVVGYIGERCQYRDLKWWELR
modifications: biotin (conjugated with NHS-biotin; sites not stated)
notes: also called rhEGF; source: bought: Thermo Scientific; biotinylated with NHS-biotin
- increase of the relative binding percentage on a tenfold higher concentration: 4%
